Experimental data published in patent US20250277199, “NOVEL CRISPR-CAS NUCLEASES FROM METAGENOMES” (Brain Biotech AG, published 2025).

Molecular target: T1, BMC09 (uncultured bacterium (metagenome))
T1 chain: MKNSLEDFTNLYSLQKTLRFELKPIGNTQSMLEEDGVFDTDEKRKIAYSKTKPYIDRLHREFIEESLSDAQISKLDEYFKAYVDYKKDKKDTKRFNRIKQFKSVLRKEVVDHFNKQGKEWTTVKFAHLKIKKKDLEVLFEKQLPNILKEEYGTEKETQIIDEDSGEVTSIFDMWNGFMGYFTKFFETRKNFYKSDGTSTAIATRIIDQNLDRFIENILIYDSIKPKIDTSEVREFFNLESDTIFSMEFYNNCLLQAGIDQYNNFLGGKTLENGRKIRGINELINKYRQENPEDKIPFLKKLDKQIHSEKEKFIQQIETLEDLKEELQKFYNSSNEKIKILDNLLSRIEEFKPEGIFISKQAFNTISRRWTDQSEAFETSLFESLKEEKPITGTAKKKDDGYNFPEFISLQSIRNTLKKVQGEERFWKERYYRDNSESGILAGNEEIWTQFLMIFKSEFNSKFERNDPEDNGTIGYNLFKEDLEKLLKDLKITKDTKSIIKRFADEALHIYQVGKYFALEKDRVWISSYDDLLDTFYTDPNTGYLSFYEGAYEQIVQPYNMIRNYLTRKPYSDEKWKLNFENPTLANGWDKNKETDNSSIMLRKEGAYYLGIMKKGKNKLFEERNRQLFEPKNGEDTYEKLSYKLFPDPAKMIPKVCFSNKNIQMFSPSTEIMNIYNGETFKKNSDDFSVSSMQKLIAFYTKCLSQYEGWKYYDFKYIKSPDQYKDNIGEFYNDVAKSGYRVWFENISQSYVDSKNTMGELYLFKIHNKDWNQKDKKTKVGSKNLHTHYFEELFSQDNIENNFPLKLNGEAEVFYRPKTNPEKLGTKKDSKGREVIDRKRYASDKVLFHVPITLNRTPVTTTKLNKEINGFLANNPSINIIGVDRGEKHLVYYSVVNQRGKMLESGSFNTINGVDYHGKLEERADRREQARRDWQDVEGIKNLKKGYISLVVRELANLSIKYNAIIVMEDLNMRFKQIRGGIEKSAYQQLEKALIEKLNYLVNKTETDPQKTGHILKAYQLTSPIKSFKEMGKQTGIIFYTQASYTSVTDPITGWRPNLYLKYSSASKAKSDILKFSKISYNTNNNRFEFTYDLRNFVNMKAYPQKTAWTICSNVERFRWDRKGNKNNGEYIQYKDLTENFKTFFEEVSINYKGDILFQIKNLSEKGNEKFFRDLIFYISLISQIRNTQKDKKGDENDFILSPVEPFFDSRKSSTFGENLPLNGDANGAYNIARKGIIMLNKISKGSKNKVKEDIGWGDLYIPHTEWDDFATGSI
Assay: cell_activity; PAM not stated; E. coli depletion, 30 C
How it was run: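 E. coli carrying arabinose-induced (0.2%) BMC nuclease, grown at 30° C., made electrocompetent and electroporated with 50-100 ng plasmid carrying gRNA against malQ. Transformants plated on selective M9-glucose agar with kanamycin/ampicillin (± nourseothricin), and growth scored after 48 h at 30° C.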

B1: malQ gRNA (BMC stem-loop + 24 nt spacer) ; malQ protospacer (ssRNA ; dsDNA)
RNA: GAUUUCUACUAUUGUAGAUGUGGCGGUACGUUGAUGCAUCGCG
DNA 1: GTGGCGGTACGTTGATGCATCGCG
DNA 2: CGCGATGCATCAACGTACCGCCAC
**Q.** Which activity does the source give for B1 here?
**A.** > 99.9 % colony reduction
